Measurements as given in the RNAGym collection of RNA variant scans (doi:10.7554/elife.90254).

B1: OR4K15 (parent)
chain: GUUAACGGUCAUAGGCCAUGGAAACUAGGAGCACCAUUUCGCUGCCAGUGAAGAAAUGAACAAAGAAAAUCUGGGCCAGGCAGGCAUCAAAAGAAAUAGUCUUGCGCUCAACCAGAAAGUCUGUAAUCAUUUUAAGGGUA

Variants of: B1
Assay: self-cleavage, relative activity (ratio to wild type); higher = more cleavage; in vitro, sequencing; the parent is a self-cleaving ribozyme

Going from A64G A98C to G73A A129G, the self-cleavage falls from 1.73 to 0.07.

Going from A55C U87C to U37A A126G, the self-cleavage falls from 0.47 to 0.44.

Compared with A55G A60U, A13U C107U is lower in self-cleavage: 1.62 for the first, 0 for the second.

Compared with A59G A62C, A11U A18U is higher in self-cleavage: 0.43 for the first, 1.82 for the second.

First: A54G A118U
Second: A47G U124C
The self-cleavage of the first is higher: 0.84 for the first, 0.32 for the second.

Compared with U108C G115A, G29A A78U is higher in self-cleavage: 0 for the first, 0.14 for the second.

Going from G41A U108C to A116G A134U, the self-cleavage rises from 0.01 to 0.2.

Compared with C109A A118G, U108A A114G is lower in self-cleavage: 0.32 for the first, 0.02 for the second.

Going from U124A U131C to A63G A98U, the self-cleavage rises from 0.36 to 2.55.

First: A55G A95G
Second: U49A C107U
The self-cleavage of the first is higher: 1.92 for the first, 0.04 for the second.

Going from G48A U127A to G41A C113U, the self-cleavage falls from 2.28 to 0.02.

First: A23G A52G
Second: G14A A64G
The self-cleavage of the first is higher: 1.13 for the first, 1.06 for the second.

Compared with A54C U87C, A51G U122C is lower in self-cleavage: 1.45 for the first, 0.6 for the second.

Compared with A118G U127C, A54G C85U is higher in self-cleavage: 0.24 for the first, 1.39 for the second.

First: U38C C101U
Second: A86G U127C
The self-cleavage of the first is lower: 0.35 for the first, 1.22 for the second.

Going from U19C U130C to A55G C107A, the self-cleavage falls from 0.31 to 0.02.

First: U39A G115U
Second: A47C A96G
The self-cleavage of the first is lower: 0.27 for the first, 1.82 for the second.

First: A22U U122C
Second: A27G A30C
The self-cleavage of the first is higher: 1.37 for the first, 1.14 for the second.

First: G73A C88U
Second: A64C A94G
The self-cleavage of the first is lower: 0.17 for the first, 2.25 for the second.

Going from A60U G104A to A47U A68U, the self-cleavage rises from 0.03 to 0.73.

Going from G79C U132C to A30G A114U, the self-cleavage falls from 0.06 to 0.05.

Going from U132C A140G to A92G U108C, the self-cleavage falls from 1.79 to 0.01.

First: A4G U132C
Second: A63G A69G
The self-cleavage of the first is lower: 0.72 for the first, 1.04 for the second.

Compared with C77U A116G, U127A U132C is higher in self-cleavage: 1.22 for the first, 1.55 for the second.

First: A5U A54U
Second: A64G G123A
The self-cleavage of the first is higher: 1.7 for the first, 1.66 for the second.

Going from A11G A67G to A96G U127A, the self-cleavage rises from 0.74 to 2.73.

Compared with G106A, A114U A129G is higher in self-cleavage: 0.01 for the first, 0.06 for the second.

First: U19C A68U
Second: G29C
The self-cleavage of the first is lower: 1.36 for the first, 1.78 for the second.

Compared with G7A U9C, A11G C61A is lower in self-cleavage: 2.32 for the first, 0.69 for the second.

First: A13U G80C
Second: A86G A116U
The self-cleavage of the first is lower: 0.26 for the first, 0.36 for the second.

First: U108C A111G
Second: A33G A54G
The self-cleavage of the first is lower: 0.01 for the first, 1.06 for the second.

U57C G137C and A59C U124A are the same in self-cleavage: 0.73 for the first, 0.73 for the second.

Compared with A64G U127C, G7C is higher in self-cleavage: 0.86 for the first, 1.07 for the second.

Compared with A22G G106A, A56G A111U is lower in self-cleavage: 0.03 for the first, 0 for the second.

First: A66G G73U
Second: A27G A111U
The self-cleavage of the first is higher: 0.3 for the first, 0.04 for the second.

First: A59G A110U
Second: C46U A55G
The self-cleavage of the first is lower: 0.97 for the first, 1.14 for the second.

Going from A62U U97C to A96G U108G, the self-cleavage falls from 0.96 to 0.03.

First: C34A U102A
Second: A18U A51U
The self-cleavage of the first is lower: 1.09 for the first, 1.24 for the second.

First: A11G A95G
Second: A4G A111G
The self-cleavage of the first is higher: 1.73 for the first, 0.1 for the second.

Going from C76A A110G to A13C A30G, the self-cleavage rises from 0.05 to 1.49.

Compared with G138C, A51G A114U is lower in self-cleavage: 1.73 for the first, 0.08 for the second.

Compared with C101A, A63G A140G is higher in self-cleavage: 0.21 for the first, 2.02 for the second.

First: U38C A126U
Second: A63G C109U
The self-cleavage of the first is higher: 1.12 for the first, 0.69 for the second.

Compared with U26C U131A, U9C A11C is higher in self-cleavage: 1.02 for the first, 1.71 for the second.

Going from A117U A129G to U2C U72G, the self-cleavage falls from 0.47 to 0.19.

Compared with C45U U70C, A63G U70G is higher in self-cleavage: 0.82 for the first, 1.56 for the second.

First: U103A U122C
Second: U9C A66U
The self-cleavage of the first is lower: 0.35 for the first, 1.42 for the second.

Going from A114C to A68U A82U, the self-cleavage rises from 0.04 to 0.25.

First: C121U U130C
Second: A67G U122C
The self-cleavage of the first is lower: 0.92 for the first, 0.99 for the second.

First: U57C A135U
Second: U102C U130A
The self-cleavage of the first is lower: 1.02 for the first, 1.61 for the second.

Compared with A78G U133C, A66U U127C is higher in self-cleavage: 0.27 for the first, 0.58 for the second.

Compared with U38G A62C, A33U A135U is higher in self-cleavage: 0.78 for the first, 1.79 for the second.

Compared with A33G A96C, G31C U70A is higher in self-cleavage: 0.76 for the first, 0.94 for the second.

Compared with U12C A134G, A23U A82G is lower in self-cleavage: 1.7 for the first, 0.82 for the second.

First: U100A U124C
Second: A36G A55U
The self-cleavage of the first is lower: 0.18 for the first, 1.38 for the second.

Compared with A67G A117C, A24G U38C is higher in self-cleavage: 0.17 for the first, 1.46 for the second.

Compared with G84A A111G, U38C A129G is higher in self-cleavage: 0.01 for the first, 1.31 for the second.

Going from A63G A117G to U87A U100G, the self-cleavage rises from 1.69 to 2.13.

Going from U19C A52G to A56G U132C, the self-cleavage falls from 1.35 to 0.6.

Going from G44A A111G to A11G A60G, the self-cleavage rises from 0.01 to 0.86.

Going from U43G A69G to C46A A116G, the self-cleavage falls from 2.1 to 0.57.

Going from A23U A36U to U37G A90G, the self-cleavage falls from 1.53 to 0.38.

First: A111G
Second: A30G A47G
The self-cleavage of the first is lower: 0.02 for the first, 0.71 for the second.

First: A60G C112U
Second: U49C A135G
The self-cleavage of the first is lower: 0.02 for the first, 1.97 for the second.

First: A33G U127A
Second: A68U A117G
The self-cleavage of the first is higher: 1.19 for the first, 0.37 for the second.

Going from A24G A68G to A62C A116U, the self-cleavage falls from 1.01 to 0.63.

Compared with G31C, A94G A111G is lower in self-cleavage: 1.79 for the first, 0.03 for the second.

Going from A4G G14U to A18G A117G, the self-cleavage falls from 0.67 to 0.59.

First: A11G U127C
Second: U39C C128U
The self-cleavage of the first is lower: 0.63 for the first, 1.42 for the second.

Going from G73A A86G to G48A A69G, the self-cleavage rises from 0.05 to 1.49.

First: U122A U131G
Second: A60G A111U
The self-cleavage of the first is higher: 0.73 for the first, 0.11 for the second.

Going from U9C U49C to A22U C121U, the self-cleavage falls from 1.67 to 0.

First: G50C C85U
Second: G7A A96U
The self-cleavage of the first is lower: 1.4 for the first, 1.83 for the second.

First: U57A U130C
Second: A135U
The self-cleavage of the first is lower: 0.81 for the first, 1.47 for the second.

Going from A23G U132C to U127A A135G, the self-cleavage rises from 1.07 to 2.31.

First: A27G U57C
Second: G84C U122C
The self-cleavage of the first is higher: 0.49 for the first, 0.23 for the second.

First: U19C A95G
Second: U57C A78U
The self-cleavage of the first is higher: 1.58 for the first, 0.26 for the second.

Going from A5G A64U to A47U U57C, the self-cleavage falls from 1.85 to 0.75.

First: C40G U72C
Second: U9C A59U
The self-cleavage of the first is lower: 0.41 for the first, 1.48 for the second.

Going from A23G G84A to U39C G106U, the self-cleavage falls from 1.58 to 0.02.

Compared with A52U U124G, A5G G74A is lower in self-cleavage: 0.84 for the first, 0.73 for the second.

Going from U9A A126G to A90G U139C, the self-cleavage rises from 0.57 to 1.2.

First: A24C U108C
Second: A60G A63C
The self-cleavage of the first is lower: 0.01 for the first, 1.48 for the second.

U108C A111U gave a self-cleavage of 0.
